Experimental data: the DeepSol protein solubility set

Assay: soluble on expression in E. coli; label from the status in PepcDB or PDB records

Soluble on expression in E. coli, not soluble:
MGSDKIHHHHHHMRVAIDAFNIALAHGTGVATYGRTLASAAAGLGHEVNVLFGAGAGYSKVPLLNEIALAEVGAVSARGPSRAALARGIARGLAGARPAHDLPISGQVILPPGLRLDARRHSNVPNLFKAADLGFRAAGAFSKVKVPGTDLAHWTYPLPLKMVGARNVYTLHDLVPLRLPYTTADVKHAYYRLCRRIARDADHILTVSECSRRDIVRLLGVDEDRVTNLYQTSDIADAIAGVSEDFVARYVEGLLGVGMREYFLFFGAIEPKKNVARLIEAFLASAVQSPLVIVGGAGWGGEQDVKLLKSLAGMDTRKRIVWLGYLPRQMLAMLIAGARATVFPSLYEGFGLPVLESMELGTPVITSNVSSLPEVAQDAGLLVDPYDVRSLATAFLQLDADPGLRSQMSMRGREVAAGFSAEAYRGRLADFYAKF
MGSDKIHHHHHHMRVELNGILPVCPCSGRGYLDNARLFRQIEPIVRKQSPFMNSRSLLCLLAVSLCASPVWADTVWMKNGDRLSGKIKVFDGGKLLLETPYGGSIALDWKQVQTLESDQEMLVKQDAYSGEKAKSLKAAEAGKVTLANGDSPKTVALASIEQIMKPKPLVEDFVWKGNVDVALDYKRAENDTDDYDVGFKTTARHGRWRHNAEGEYNRETKDDVTTTNNWSAEYALDRFITDKWFWQGRAEYKRDHIEDLARQRTVGTGPGYQFWDDELGAFSLGSLINRTDFEYRDGGKDNFYSAAVKWDYTRYLIGKNVQLFTNGEFAKPLGGVADYSLDAEVGLRYKVTEWASLNLKAEKDIITGTRESDLDKTRYTAGFGVTW
MGSDKIHHHHHHMRVFNSSPPSEAQTRTRILQAAQRLFASQGFDGTTTRDLAQAAGVAEGTLFRHFPNKKAILVEVATSGWVEILTDLLTELSEMGSYKAVAQVMRRRMWNFQKNADLMRVCFMEVQFHPDLRDRIQLEVITKMTDVGEAFFQTAMDKGIYRKMDAKLVAKVFLGMFAIAGFSNNTLIEPDASPQQMQEMAEGLADIFLNGVLAKD
MGSDKIHHHHHHMRVLVVGLGNMGQSHALAHHAADGVEIIGLVNRSSRDLPGALQGYPMIQTVEEGLALSPDLVVIATYSDTHADLACQAMRAGAHVFVEKPLATTVADAKGVVETARETGQKLVVGYILRHHPSWMRLIEEARALGGPYVFRMNLNQQSTGAEWATHKALMQTTSPIVDCGVHYVDVWCQITDARPVAVHGMGLRLSDEIAPEMYNYGQFQVFFDDGSVGWYEAGWGPMMSEVAFFVKDVISPNGAVSITEADKAGSADIDGHTKVGGVLVHRPGDDQLIEFEGEPGHQELCDAEQAFMRRAIAEDLDLSRHMEDAVRSLAICLAADESIRTGQRVTL
MGSDKIHHHHHHMSAVIGYRHGKAGERGIILCARQFQNSLNESSLEEIKRAIESYPFLQDYYEIGDKYIKSKDGRIVYVFAGLDRNIASIKSMGRVFLCWVDEAEPVTETAWQTLIPTLREEGNDWNAELWVTWNPCRENAPVEKRFRNVNNPHIKGAEITWRDNPQFPEKLNRDRKADLEQRPEHYNHIWEGEYLQTVEGAYYQKALLEASREGRITTVPRDPLMQIRIFWDIGGTGAKADATALWVAQFVGREIRVLDYYEAQGQPLSEHVGWVFQRGYDKALMVLPHDGATKDRVYNVSFESALQQAGFQTKVIPNQGVGAVKMRIEAVRRLFPAIWFNRETTHAGRKALAWYHEKRDEQRNIGLGAEHDWASHGADAFGLMCVAYEQPNMRPKKNTYRSSHHSQTSWMAF
MGSDKIHHHHHHMSCAHVLRTWAPCIMRRAEQALRNSSYLAWETAMGKLALAAKVTHVPSLYLSELDGPHKGCRQPAIDGHHEIGRRCRELGVDTIVVFDVHWLVNSEYHINCAPKFEGIYTSNELPHFIRNMPYAYPGNVELGNLIAEVASEMGVKSRAHSETTLELEYGTLVPMRYMNADQHFKAVSVAGWCVWHDLDTSVRFGLAVRKAIEERYEGTVAILASGSLSHHFANNGTAEQFMHKVWNPFLEQMDRKVVELWEAGDWKTFCEMLPLYNEKCWGEGGMHDTAMLLGALGWDRYEGKVEVVTPYFGSSGTGQINAIFPVTPLPV
MGSDKIHHHHHHMSDARGAFHSKGRWSRMALPAILCAGLLVGCGAEPPAEEHVRVLAQTVKMAEFASATSITGDIQARVQADQSFRVGGKIVERLVDVGDHVAAGQVLARLDPQDQRSNVENAQAAVAAQQAQSKLADLNYQRQKALLPKGYTSQSEYDQALASVRSAQSSLKAAQAQLANARDLLSYTELRASDAGVITARQAEVGQVVQATVPIFTLARDGERDAVFNVYESLFSHDVDGQRITVSLLGKPEVTASGKVREITPTVDERSGTLKVKVGLDSVPAEMSLGSVVNASVAAPAEHSVVLPWSALSKVGEQPAVWLLDQQGKARLQPVRVARYASEKVVIDGGLEAGQTVVTVGGQLLHPGQVVEVAQPPQPTQSTASRDAVGGGQP
MGSDKIHHHHHHMSDKLSQEQIDALLSQMSEGKVVDESTEIGDFGRFHPYDFHKPEKFGAEHLESLKTIASAFTKKSMEFVSQRIRIPIHTEATLADQVSFASGYIETMPNDSYIFCIIDLGNPELGQIIIELDLAYIIYIHECLSGGNPKRKLSERRLLSVFEELTLKSILEKFCEALKDSFKSVHPISPEIVNIETNPALLRVTSPNDMMALVSVDIKSEFWISTMRIGVPFFSVEEIMNKLENVVEYTFDKRRNFDAEVEQELHQVEKEARIRVGEIKTTWKELNMLEVGDVLLTETHIRDTLKGYVTEKWKFECYMGKSGNQKAVKFMRHTGRTEQER
MGSDKIHHHHHHMSDKTKELRNKYNSKNRHKNFGPCLRKVHIEGFRGVQSADLELEFPITAISGLNGSGKSTVGQLAICAYKKPDKSMTYKRLYIKDFFPVSPADPKPISDSAKVVYFYETDDYQKPKEVTVSRVKSSWSGYKRQPERYCYYIGFTVYLPKVERRDLSVYAGVNLQFTEKRDIEAEVVKKMARIIGHKYENVAFQGVSHNGKESEVGIAYRLGYSYSENNMGFGEGRILYTIDKLESSPEQSLFILEEPETSLHESAQHEFAKYLLDVCNRRHHQIILSTHSSVIVNALPPESRKLMIRDEGGVDIRNKISSGQLRSILSSGHVRSLDICVEDNFAKVLLIEVIRMKRKALLKIVEIHAIGSTDAVREAVRILKKTGKKAIAVRDADIGPSEKEGLYSFPGNKPPEKEVFEHSAVKAFFKSKYDLDVEWFFQYKNVSDHHYYAKCIASEIASDESVIQTSAIEEYLKHVNNNFDYLIDAIEKELDNHN
MGSDKIHHHHHHMSDPGQPTLDQLRVFIAVVETGSFAAAARKLNRATSVISYTIANLEAQLGVTLFDRLSTKKPQLTLEGRTVLAEARSVSNGIDNLRAKVKSMLRGIEPEVHLALDVMLPASRVMDALKAFRKEFPSVSLRLYVEALGAVTQIVLNRTATVGISGPLDVDVLGLERIGVGFVQLVPVAAPDHPLAGGSHAPGAARSHIQLVLTDRSPLTQGHEFAVVGTHTWRLADLGAKHMLLKEGIGWGNMPEPMVRDDLADGRLVQLDLPDCKGGPYRLQAIYRTDTPPGPAGRFLIEHFQAQDAKTPTTAW
MGSDKIHHHHHHMSDQANQGDLEIRPSPLLKVINDLHSKYKSLKEGIVANYIPELAKVNPDLFSISIVTVDGQVYQVGDYQQLFTIQSISKVFAYGLALEDHGRDYVLTRVGVEPTGEAFNAIILDEQSKRPYNPMVNAGAIATTSLIKGAGATERLNRVLEMFRRYIGHDVFVDISVFTSERSTGHRNRAMAHLMLNFGMIDRNIEEALDLYFQQCAVMVNCHDLAVMAATLANRGVNPITGEQAVNSRYIKDILSVMYTCGMYNFAGEWAYKVGIPAKSGVCGGIMAVVPNLMGIAVFSPPLDIRGNSVRGVKVCEELSQQLGLHLFECMKVGNGEWGVGNCEC
MGSDKIHHHHHHMSDVLSQEEINQLIEALMKGELKEEDLLKEEEEKKVKPYDFKRPSKFSKEQLRTFQMIHENFGRALSTYLSGRLRTFVDVEISIDQLTYEEFIRSVMIPSFIVIFTGDVFEGSAIFEMRLDLFYTMLDIIMGGPGENPPNRPPTEIETSIMRKEVTNMLTLLAQAWSDFQYFIPSIENVETNPQFVQIVPPNEIVLLVTASVSWGEFTSFINVCWPFSLLEPLLEKLSDRFWMMGRKPEKVEERMEELRKASQKIPVTVQAVIGETELRLKEILDLEVGDVIRLGTHYKDEIRIDVEGRPKFRGIPGVFKGKYAVKVTGEFTNGGEYE
MGSDKIHHHHHHMSDVYDYLKESLPGDHSRQATAEAVLQARVAKGFAPAKVLDFGCGDGRSIDLFRRMLPQVDWTGVDIEASPEVASRRRQDGRFVTYDGYELPFPDRSFPLVYSHQVLEHVRKPELALREIARVLEPDGLFIGQTSQFEPYHSYSLWNFTVYGFKRIVEDAGMQLAELRPGIDGFTLMRRTYEGRPPEMSKYFSQESPINEEIEKAAGDKRTQVRNFRKLLFCGQFIFVVQLR
MGSDKIHHHHHHMSEKTLLELPKKFMEALMAPFIGREEEAKVITLALLSKEHVILIGEPGTAKSALARRAAELLNAKFFMYLLTKYTEPAELFGALDINALKDGQYKRITKDRLPESQIAFLDEIFNANSAILNALLSLLNERVIYDGYNVIKVPLRTLISASNRVPDEPELEALYDRLLLRHYARPVGEELWKQLLDATWEIEFTNRWAVKEPIMNIEHLDKLYSYLSQVDLSGVKNKLLKLYAMLEEKGIHLSDRRKGKVLKVVSAHAILNSRLKATEEDLIVLKYIAPREIDDFEKVAALLSEELKTPIKYMKELNEIYNNIKEAAKYVEAANESDPRLIELIRSLRATRDRIVALGKESGDEKVEEFSKEVLSEIDKLIEKVARKLGIYP
MGSDKIHHHHHHMSGKIAFVTGATGLLGSNLCRALVSQGWQVKGLVRSLDKAKRFLGDSNIELIQGDIEDVPAFTQALKGVDVVFHTAAFFREYYQPGSDWQKMKRINVDTTIELLQAAEAQGVAKVVFTSSSGVIQTDPHQAATETAPYNKFAEQNLYFKTKILAEQEIYRFLNTSQIDVVMILPGWMMGPGDAAPTSAGQLVLDLLAGKLPGVINGGAALTDVRDVATVMVKAAEKGESGGRYIVAGPLTTMKEIALELEAISGVKAPRMEIPDGMAIAIAWFLEKFTGLTGGVNPMPLAGIQTLLEKAKLSSAKAERDLGATFRPLRETLKDTVLWYQSQGYV
MGSDKIHHHHHHMSGSKIKIALFNDTDFRVNIGCRLTSQGLKQQILDAFPAAEITSIGFNFAAFRKEFPKSTSAGGYELSDIETRLSTAYGEGAVDHIRAADFVILQPEGSLDHRTTAEGLATFFTPILTARKLGKPFAVLNGTIPIYEGERSDYLKGLFRELGHVAARDEISAEYYGIEFLADAAFLRISPAPVADRDGCLITTGARNNAEEDVEILKAALKICEAWKLRPVVLTHAVERFSPYEAEIIGRGGIFAETASIEHAAETISKCRLHIGGRYHMAIFSLLCNVPSLLFDVKTHKNQWLERYSPLITLVHPHTDLDAAAAAVLSGGVSQGHPGSTAAEKYVHFLKRAMAEQPL
MGSDKIHHHHHHMSIEIRQVNNLRKKRQFFQYNYQLYKDDPYWVSWPVANLVKMFDPEECGFYEHGILEAWLAYQNGKIVGRIAGSIDGTYNQTYGVQTAFFGFYECIDDQDVSKILFEQVENWAQSYGMTQLLGPFSLSPIYGAGMLIAGFDDSPYVAMPYNRSYYPNQLESSGFKKAKDYNAFRIKGELTIPEFLTKNAQRWRNKRITYRQLNPDQLAQESDLVCDLYNDGFAGQWGYTYIERSEFYQLVLDWIQVIDPRLFLFVLIGDNPVGFGMLVPDVFQILHQTKTLPGLLRYLGRRIFTFGRENEITRYRLDSLCIRKQYQSLGLGVLLWCEIMQQYLNSNYTEIEFSPILEDNTMAQTLLLKLGAERSKVYRVFEKSWCN
